From US20030157712A1, “Methods for determining cell responses through EphB receptors” (priority 1997, published 2003)

Target: endogenous EphB1 receptor of P19 cells (teratocarcinoma-derived, pluripotent murine cells) (murine) (UniProt Q8CBF3)
Test: cell-based or functional assay

Chain of endogenous EphB1 receptor of P19 cells (teratocarcinoma-derived, pluripotent murine cells) (murine) (Q8CBF3 18-984): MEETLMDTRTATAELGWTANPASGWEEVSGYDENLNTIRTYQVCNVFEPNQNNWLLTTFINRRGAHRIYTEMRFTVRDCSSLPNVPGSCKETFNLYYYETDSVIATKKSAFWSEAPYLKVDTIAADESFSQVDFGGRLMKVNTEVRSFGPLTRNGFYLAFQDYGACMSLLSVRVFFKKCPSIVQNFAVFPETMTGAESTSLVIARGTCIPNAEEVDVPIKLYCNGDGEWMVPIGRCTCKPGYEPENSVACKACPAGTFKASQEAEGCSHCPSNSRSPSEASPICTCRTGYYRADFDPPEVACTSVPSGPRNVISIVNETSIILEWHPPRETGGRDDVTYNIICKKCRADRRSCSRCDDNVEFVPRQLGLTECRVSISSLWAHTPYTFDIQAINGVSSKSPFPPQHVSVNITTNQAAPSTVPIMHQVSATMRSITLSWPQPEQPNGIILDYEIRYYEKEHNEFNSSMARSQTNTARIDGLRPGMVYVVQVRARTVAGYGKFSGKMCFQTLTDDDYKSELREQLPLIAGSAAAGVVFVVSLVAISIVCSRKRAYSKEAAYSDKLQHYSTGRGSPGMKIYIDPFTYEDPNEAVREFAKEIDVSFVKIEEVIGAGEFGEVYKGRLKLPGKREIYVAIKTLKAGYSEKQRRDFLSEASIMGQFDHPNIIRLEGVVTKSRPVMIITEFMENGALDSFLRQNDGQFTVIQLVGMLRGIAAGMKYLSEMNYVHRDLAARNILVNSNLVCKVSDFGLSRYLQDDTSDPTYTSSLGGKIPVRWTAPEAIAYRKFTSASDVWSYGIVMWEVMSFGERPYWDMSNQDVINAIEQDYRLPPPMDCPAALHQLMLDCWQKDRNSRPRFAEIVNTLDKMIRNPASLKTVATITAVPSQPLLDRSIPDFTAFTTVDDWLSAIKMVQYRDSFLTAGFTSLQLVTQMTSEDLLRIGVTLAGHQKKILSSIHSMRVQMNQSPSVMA

“preclustered multimeric ephrin-B1/Fc (ephrin-B1/Fc + anti-Fc) (from UniProt P98172 28-237; P01857 99-330) (Fc fusion)” showed a % attached P19 cells in wells preadsorbed with ligand and fibronectin of 60%.
